In the RNAGym collection of RNA variant scans (doi:10.7554/elife.80360):

B1: HDV Ribozyme (parent)
chain: GGCCGGCAUGGUCCCAGCCUCCUCGCUGGCGCCGGCUGGGCAACAUUCCGAGGGGACCGUCCCCUCGGUAAUGGCGAAUGGGACCCA

Variants of: B1
Test: self-cleavage, relative activity (ratio to wild type); higher = more cleavage; co-transcriptional

Variant	self-cleavage
GGCCGGCGUGGUCCCAGCCUCCUCGCUGGCGCCGGCUGGGCAACAUUCCGAGGGGAUCGUCCCCUCGGUAAUGGCGAAUGGGACCCA [A8G C57U]	1.16
GGCCGGCGUGGUCCCAGCCUCCUCGCUGGCGCCGGCUGGGCAACAUUCCGAGGGGAGCGUCCCCUCGGUAAUGGCGAAUGGGACCCA [A8G C57G]	1.27
GGCCGGCGUGGUCCCAGCCUCCUCGAUGGCGCCGGCUGGGCAACAUUCCGAGGGGACCGUCCCCUCGGUAAUGGCGAAUGGGACCCA [A8G C26A]	1.11
GGCCGGCGUGGUCCCAGCCUCCUCGUUGGCGCCGGCUGGGCAACAUUCCGAGGGGACCGUCCCCUCGGUAAUGGCGAAUGGGACCCA [A8G C26U]	1.16
GGCCGGCGUGGUCCCAGCCUCCUCGCUGGCGCCGGCUGGGCAACAUUCCGAGGGGACCGUCCCCUCGGUAAUGGCGAAUGGGACCCA [A8G]	1.02
GGCCGGCGUGGUCCCAGCCUCCUCGCUGGCGCCGGCUGGGCAACAUUCCGAGGGGACAGUCCCCUCGGUAAUGGCGAAUGGGACCCA [A8G C58A]	1.07
GGCCGGCGUGGUCCCAGCCUCCUCGCUGGCGCCGGCUGGGCAACAUUCCGAGGGGACCGUCCCCUCGGUGAUGGCGAAUGGGACCCA [A8G A70G]	1.09
GGCCGGCGUGGUCCCAGCCUCCUCGCUGGCGCCGGCUGGGCAACAUUCCGAGGGGACCGUCCCCUCGGUUAUGGCGAAUGGGACCCA [A8G A70U]	0.831
GGCCGGCGUGGUCCCAGCCUCCUCGCUGGCGCCGGCUGGGCAACAUUCCGAGGGGACCGUCCCCUCGGUAAUGGCGACUGGGACCCA [A8G A78C]	0.166
GGCCGGCGUGGUCCCAGCCUCCUCGCUGGCGCCGGCUGGGCAACAUUCCGAGGGGACCGUCCCCUCGGUAAUGGCGAUUGGGACCCA [A8G A78U]	0.266
GGCCGGCGUGGUCCCAGCCUCCUAGCUGGCGCCGGCUGGGCAACAUUCCGAGGGGACCGUCCCCUCGGUAAUGGCGAAUGGGACCCA [A8G C24A]	0.762
GGCCGGCGUGGUCCCAGCCUCCUUGCUGGCGCCGGCUGGGCAACAUUCCGAGGGGACCGUCCCCUCGGUAAUGGCGAAUGGGACCCA [A8G C24U]	0.665
GGCCGGCGUGGUCCCAGCCUCCUGGCUGGCGCCGGCUGGGCAACAUUCCGAGGGGACCGUCCCCUCGGUAAUGGCGAAUGGGACCCA [A8G C24G]	0.0639
GGCCGGCGUGGUCCCAGCCUCCUCGCUGGAGCCGGCUGGGCAACAUUCCGAGGGGACCGUCCCCUCGGUAAUGGCGAAUGGGACCCA [A8G C30A]	0.237
GGCCGGCGUGGUCCCAGCCUCCUCGCUGGUGCCGGCUGGGCAACAUUCCGAGGGGACCGUCCCCUCGGUAAUGGCGAAUGGGACCCA [A8G C30U]	0.806
GGCCGGCGUGGUCCCAGCCUCCUCGCUGGGGCCGGCUGGGCAACAUUCCGAGGGGACCGUCCCCUCGGUAAUGGCGAAUGGGACCCA [A8G C30G]	0.128
GGCCGGCGUGGUCCCAGCCUCCUCGCUGGCGCCGGCUGGGCAACCUUCCGAGGGGACCGUCCCCUCGGUAAUGGCGAAUGGGACCCA [A8G A45C]	0.332
GGCCGGCGUGGUCCCAGCCUCCUCGCUGGCGCCGGCUGGGCAACUUUCCGAGGGGACCGUCCCCUCGGUAAUGGCGAAUGGGACCCA [A8G A45U]	0.692
GGCCGGCGUGGUCCCAGCCUCCUCGCUGGCGCCGGCUGGGCAACAUUCGGAGGGGACCGUCCCCUCGGUAAUGGCGAAUGGGACCCA [A8G C49G]	1.27
GGCCGGCGUGGUCCCAGCCUCCUCGCUGGCGCCGGCUGGGCAACAUUCUGAGGGGACCGUCCCCUCGGUAAUGGCGAAUGGGACCCA [A8G C49U]	0.692
GGCCGGCCUGGUCCCAGCCUCCUCGCUGGCGCCGGCUGGGCAACAUUCCGAGGGGACCGACCCCUCGGUAAUGGCGAAUGGGACCCA [A8C U60A]	0.831
GGCCGGCCUGGUCCCAGCCUCCUCGCUGGCGCCGGCUGGGCAACAUUCCGAGGGGACCGCCCCCUCGGUAAUGGCGAAUGGGACCCA [A8C U60C]	0.489

Variant	self-cleavage
GGCCGGCGUGGUCCCAGCCUCCUCGCUGGCGCCGGCUGGGCAGCAUUCCGAGGGGACCGUCCCCUCGGUAAUGGCGAAUGGGACCCA [A8G A43G]	0.415
GGCCGGCGUGGUCCCAGCCUCCUCGCUGGCGCCGGCUGGGCAUCAUUCCGAGGGGACCGUCCCCUCGGUAAUGGCGAAUGGGACCCA [A8G A43U]	0.519
GGCCGGCGUGGUCCCAGCCUCCUCGCUGGCGCCGGCUGGGCACCAUUCCGAGGGGACCGUCCCCUCGGUAAUGGCGAAUGGGACCCA [A8G A43C]	0.145
GGCCGGCGUGGUCACAGCCUCCUCGCUGGCGCCGGCUGGGCAACAUUCCGAGGGGACCGUCCCCUCGGUAAUGGCGAAUGGGACCCA [A8G C14A]	0.0791
GGCCGGCGUGGUCUCAGCCUCCUCGCUGGCGCCGGCUGGGCAACAUUCCGAGGGGACCGUCCCCUCGGUAAUGGCGAAUGGGACCCA [A8G C14U]	0.997
GGCCGGCGUGGUCCCAGCCUCCUCGCUGGCGCCGGCUGGGCAACAUUCCGAGGGGGCCGUCCCCUCGGUAAUGGCGAAUGGGACCCA [A8G A56G]	0.719
GGCCGGCGUGGUCCCAGCCUCCUCGCUGGCGCCGGGUGGGCAACAUUCCGAGGGGACCGUCCCCUCGGUAAUGGCGAAUGGGACCCA [A8G C36G]	0.104
GGCCGGCGUGGUCCCAGCCUCCUCGCUGGCGCCGGCUGGGCAACAUUGCGAGGGGACCGUCCCCUCGGUAAUGGCGAAUGGGACCCA [A8G C48G]	1.11
GGCCGGCGUGGUCCCAGCCUCCUCGCUGGCGCCGGCUGGGCAACAUUACGAGGGGACCGUCCCCUCGGUAAUGGCGAAUGGGACCCA [A8G C48A]	1.07
GGCCGGCGUGGUCCCAGCCUCCUCGCUGGCGCCGGCUGGGCAACAUUUCGAGGGGACCGUCCCCUCGGUAAUGGCGAAUGGGACCCA [A8G C48U]	1.26
GGCCGGCGUGGUCCCAGCCUCCUCGCUGGCGCCGGCUGGGCUACAUUCCGAGGGGACCGUCCCCUCGGUAAUGGCGAAUGGGACCCA [A8G A42U]	0.317
GGCCGGCGUGGUCCCAGCCUCCUCGCUGGCGCCGGCUGGGCGACAUUCCGAGGGGACCGUCCCCUCGGUAAUGGCGAAUGGGACCCA [A8G A42G]	0.68
GGCCGGCGUGGUCCGAGCCUCCUCGCUGGCGCCGGCUGGGCAACAUUCCGAGGGGACCGUCCCCUCGGUAAUGGCGAAUGGGACCCA [A8G C15G]	0.262
GGCCGGCGUGGUCCAAGCCUCCUCGCUGGCGCCGGCUGGGCAACAUUCCGAGGGGACCGUCCCCUCGGUAAUGGCGAAUGGGACCCA [A8G C15A]	0.554
GGCCGGCGUGGUCCUAGCCUCCUCGCUGGCGCCGGCUGGGCAACAUUCCGAGGGGACCGUCCCCUCGGUAAUGGCGAAUGGGACCCA [A8G C15U]	0.7
GGCCGGCGUGGUCCCAGCCUCAUCGCUGGCGCCGGCUGGGCAACAUUCCGAGGGGACCGUCCCCUCGGUAAUGGCGAAUGGGACCCA [A8G C22A]	0.101
GGCCGGCGUGGUCCCAGCCUCCUCGCUGGCGCCGGCUGGGCAACAUUCCGAGGGGACCGUCCCCUCGGUAAUGGCGAAUGGGGCCCA [A8G A83G]	0.88
GGCCGGCGUGGUCCCAGCCUCCUCGCUGGCGCCGGCUGGGCAACAUUCCGAGGGGACCGUCCCCUCGGUAAUGGCGAAUGGGCCCCA [A8G A83C]	0.262
GGCCGGCGUGGUCCCAGCCUGCUCGCUGGCGCCGGCUGGGCAACAUUCCGAGGGGACCGUCCCCUCGGUAAUGGCGAAUGGGACCCA [A8G C21G]	0.0536
GGCCGGCGUGGUCCCAGCCUUCUCGCUGGCGCCGGCUGGGCAACAUUCCGAGGGGACCGUCCCCUCGGUAAUGGCGAAUGGGACCCA [A8G C21U]	0.201
GGCCGGCGUGGUCCCAGCCUCCUCGCUGGCGCCGGCUGGGCAACAUUCCGUGGGGACCGUCCCCUCGGUAAUGGCGAAUGGGACCCA [A8G A51U]	1.06
GGCCGGCGUGGUCCCAGCCUCCUCGCUGGCGCCGGCUGGGCAACAUUCCGCGGGGACCGUCCCCUCGGUAAUGGCGAAUGGGACCCA [A8G A51C]	0.962

Variant	self-cleavage
GGCCGGCGUGGUCCCAGCAUCCUCGCUGGCGCCGGCUGGGCAACAUUCCGAGGGGACCGUCCCCUCGGUAAUGGCGAAUGGGACCCA [A8G C19A]	0.107
GGCCGGCGUGGUCCCAGCCUCCUCGCUGGCGCCGGCUGGGCAACAUUCCGAGGGGACCGUCCCCUCGGUAAUGGCGGAUGGGACCCA [A8G A77G]	0.867
GGCCGGCGUGGUCCCAGCCUCCUCGCUGGCGCCGGCUGGGCAACAUUCCGAGGGGACCGUCCCCUCGGUAAUGGCGUAUGGGACCCA [A8G A77U]	0.0978
GGCCGGCCUGGUCCCAGCCUCCUCGCUGGCGCCGGCUGGGCAACAUUCCGAGGGGACCGUCCCCUCGGAAAUGGCGAAUGGGACCCA [A8C U69A]	0.688
GGCCGGCCUGGUCCCAGCCUCCUCGCUGGCGCCGGCUGGGCAACAUUCCGAGGGGACCGUCCCCUCGGGAAUGGCGAAUGGGACCCA [A8C U69G]	0.712
GGCCGGCGUGGUCCCAGCCUCCUCGCUGGCGCCGGCUGGGAAACAUUCCGAGGGGACCGUCCCCUCGGUAAUGGCGAAUGGGACCCA [A8G C41A]	0.914
GGCCGGCGUGGUACCAGCCUCCUCGCUGGCGCCGGCUGGGCAACAUUCCGAGGGGACCGUCCCCUCGGUAAUGGCGAAUGGGACCCA [A8G C13A]	0.175
GGCCGGCCUGGUCCCAGCCUCCUCGCUGGCGCCGGCUGGGCAACAUUCCGAGGGGACCGUCCCCUCGGUAAUGGCGAAGGGGACCCA [A8C U79G]	0.462
GGCCGGCCUGGUCCCAGCCUCCUCGCUGGCGCCGGCUGGGCAACAUUCCGAGGGGACCGUCCCCUCGGUAAUGGCGAACGGGACCCA [A8C U79C]	0.181
GGCCGGCGUGGUCCCAGCCUCCUCGCUGGCGCCGGCUGGGCAACAUUCCGAGGGGACCGUCCCCUCGGUACUGGCGAAUGGGACCCA [A8G A71C]	0.447
GGCCGGCGUGGUCCCAGCCUCCUCGCUGGCGCCGGCUGGGCAACAUUCCGAGGGGACCGUCCCCUCGGUAGUGGCGAAUGGGACCCA [A8G A71G]	0.739
GGCCGGCGUGGUCCCAGCCUCCUCGCUGGCGCCGGCUGGGCAACAUUCCGAGGGGACCGUCCCCUCGGUAUUGGCGAAUGGGACCCA [A8G A71U]	0.902
GGCCGGCCUGGUCCCAGCCUCCUCGCUGGCGCCGGCUGGGCAACAUUCCGAGGGGACCGUCCCCCCGGUAAUGGCGAAUGGGACCCA [A8C U65C]	0.684
GGCCGGCCUGGUCCCAGCCUCCUCGCUGGCGCCGGCUGGGCAACAUUCCGAGGGGACCGUCCCCGCGGUAAUGGCGAAUGGGACCCA [A8C U65G]	0.985
GGCCGGCCUGGUCCCAGCCUCCUCGCUGGCGCCGGCUGGGCAACAUUCCGAGGGGACCGUCCCCACGGUAAUGGCGAAUGGGACCCA [A8C U65A]	0.76
GGCCGGCCUGGUCCCAGCCUCCUCGCUGGCGCCGGCUGGGCAACAUACCGAGGGGACCGUCCCCUCGGUAAUGGCGAAUGGGACCCA [A8C U47A]	0.519
GGCCGGCGUGGUCCCAGCCUCCUCGCUGGCGCCGGCUGGGCAACAUUCCGAGGGGACCGUCCCCUCGGUAAUGGCGAAUGGGACCCU [A8G A87U]	0.991
GGCCGGCGUGGUCCCAGCCUCCUCGCUGGCGCGGGCUGGGCAACAUUCCGAGGGGACCGUCCCCUCGGUAAUGGCGAAUGGGACCCA [A8G C33G]	0.0755
GGCCGGCCUGGUCCCAGCCUCCUCGCUGGCGCCGGCUGGGCAACAGUCCGAGGGGACCGUCCCCUCGGUAAUGGCGAAUGGGACCCA [A8C U46G]	0.554
GGCCGGCGUGGUCCCGGCCUCCUCGCUGGCGCCGGCUGGGCAACAUUCCGAGGGGACCGUCCCCUCGGUAAUGGCGAAUGGGACCCA [A8G A16G]	1.14
